Test results: patent publication US20060286636A1 (published 2006)

B1: recombinant heparin-binding domain of VEGF164 (HBD) (peptide)
chain: ARQENPCGPCSERRKHLFVQDPQTCKCSCKNTDSRCKARQLELNERTCRCDKPRR
notes: also called soluble HBD; VEGF55
B2: VEGF164 double mutant R14A/R49A (ligand)
chain: APMAEGGGQNHHEVVKFMDVYQRSYCHPIETLVDIFQEYPDEIEYIFKPSCVPLMRCGGCCNDEGLECVPTEESNITMQIMRIKPHQGQHIGEMSFLQHNKCECRPKKDRARQENPCGPCSERAKHLFVQDPQTCKCSCKNTDSRCKARQLELNERTCACDKPRR
notes: ID No. 23; also called R14/R49A; mutant R14/R49A
B3: VEGF164 (wild type) (ligand)
chain: APTTEGEQKSHEVIKFMDVYQRSYCRPIETLVDIFQEYPDEIEYIFKPSCVPLMRCAGCCNDEALECVPTSESNITMQIMRIKPHQSQHIGEMSFLQHSRCECRPKKDRTKPENHCEPCSERRKHLFVQDPQTCKCSCKNTDSRCKARQLELNERTCRCDKPRR
B4: VEGF164 mutant K26A (ligand, mouse, UniProt Q00731-2 27-190, looked up)
chain: APTTEGEQKSHEVIKFMDVYQRSYCRPIETLVDIFQEYPDEIEYIFKPSCVPLMRCAGCCNDEALECVPTSESNITMQIMRIKPHQSQHIGEMSFLQHSRCECRPKKDRTKPENHCEPCSERRKHLFVQDPQTCACSCKNTDSRCKARQLELNERTCRCDKPRR
notes: mature
B5: VEGF120 (ligand)
chain: APTTEGEQKSHEVIKFMDVYQRSYCRPIETLVDIFQEYPDEIEYIFKPSCVPLMRCAGCCNDEALECVPTSESNITMQIMRIKPHQSQHIGEMSFLQHSRCECRPKKDRTKPEKCDKPRR

Tests used:
[1] = target: T1, rat Neuropilin-1/Fc chimeric receptor (rat, UniProt Q9QWJ9 22-854); assay: competition plate binding assay, HBD against 125I-VEGF165 on immobilized rat neuropilin-1/Fc
T1 sequence (Q9QWJ9 22-854, stated change not applied): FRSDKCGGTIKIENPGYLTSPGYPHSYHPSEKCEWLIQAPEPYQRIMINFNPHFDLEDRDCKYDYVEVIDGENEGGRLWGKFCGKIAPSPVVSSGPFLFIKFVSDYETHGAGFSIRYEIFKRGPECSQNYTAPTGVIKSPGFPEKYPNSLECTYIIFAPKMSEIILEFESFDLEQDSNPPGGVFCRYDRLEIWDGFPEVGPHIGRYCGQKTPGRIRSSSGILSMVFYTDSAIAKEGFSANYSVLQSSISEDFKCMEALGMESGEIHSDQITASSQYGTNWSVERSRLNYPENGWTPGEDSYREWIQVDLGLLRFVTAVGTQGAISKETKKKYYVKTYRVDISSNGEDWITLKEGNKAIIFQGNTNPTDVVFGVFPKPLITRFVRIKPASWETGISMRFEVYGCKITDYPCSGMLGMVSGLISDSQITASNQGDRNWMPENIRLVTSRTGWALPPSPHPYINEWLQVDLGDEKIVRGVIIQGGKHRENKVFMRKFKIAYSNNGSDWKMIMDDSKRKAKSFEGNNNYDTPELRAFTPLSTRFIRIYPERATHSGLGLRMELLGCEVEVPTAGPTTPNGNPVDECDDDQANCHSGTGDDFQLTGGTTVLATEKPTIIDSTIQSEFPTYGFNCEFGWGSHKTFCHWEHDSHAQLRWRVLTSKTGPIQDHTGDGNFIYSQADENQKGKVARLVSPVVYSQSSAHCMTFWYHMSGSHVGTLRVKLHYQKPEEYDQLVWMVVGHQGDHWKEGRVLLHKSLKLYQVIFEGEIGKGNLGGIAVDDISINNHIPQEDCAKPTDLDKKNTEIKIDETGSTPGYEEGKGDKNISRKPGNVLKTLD

[2] = target: T1, rat Neuropilin-1/Fc chimeric receptor; assay: competition plate binding assay: cold competitor against 125I-VEGF165 on immobilized Np-1/Fc, scintillation counting
[3] = target: T1, rat Neuropilin-1/Fc chimeric receptor; assay: competition plate binding assay, cold competitor against 125I-VEGF165 on immobilized rat neuropilin-1/Fc, without heparin
[4] = target: T1, rat Neuropilin-1/Fc chimeric receptor; assay: competition plate binding assay, VEGF164 against 125I-VEGF165 on immobilized rat neuropilin-1/Fc, compared with HBD
[5] = target: T2, mouse VEGFR-1/Fc chimeric receptor (mouse, UniProt P35969 23-759); assay: competition plate binding assay: cold competitor against 125I-VEGF165 on immobilized VEGFR-1 (Flt-1)/Fc, scintillation counting
T2 construct: Bought from R&D Systems; also called Flt-1; Flt-1 receptor
T2 sequence (P35969 23-759, stated change not applied): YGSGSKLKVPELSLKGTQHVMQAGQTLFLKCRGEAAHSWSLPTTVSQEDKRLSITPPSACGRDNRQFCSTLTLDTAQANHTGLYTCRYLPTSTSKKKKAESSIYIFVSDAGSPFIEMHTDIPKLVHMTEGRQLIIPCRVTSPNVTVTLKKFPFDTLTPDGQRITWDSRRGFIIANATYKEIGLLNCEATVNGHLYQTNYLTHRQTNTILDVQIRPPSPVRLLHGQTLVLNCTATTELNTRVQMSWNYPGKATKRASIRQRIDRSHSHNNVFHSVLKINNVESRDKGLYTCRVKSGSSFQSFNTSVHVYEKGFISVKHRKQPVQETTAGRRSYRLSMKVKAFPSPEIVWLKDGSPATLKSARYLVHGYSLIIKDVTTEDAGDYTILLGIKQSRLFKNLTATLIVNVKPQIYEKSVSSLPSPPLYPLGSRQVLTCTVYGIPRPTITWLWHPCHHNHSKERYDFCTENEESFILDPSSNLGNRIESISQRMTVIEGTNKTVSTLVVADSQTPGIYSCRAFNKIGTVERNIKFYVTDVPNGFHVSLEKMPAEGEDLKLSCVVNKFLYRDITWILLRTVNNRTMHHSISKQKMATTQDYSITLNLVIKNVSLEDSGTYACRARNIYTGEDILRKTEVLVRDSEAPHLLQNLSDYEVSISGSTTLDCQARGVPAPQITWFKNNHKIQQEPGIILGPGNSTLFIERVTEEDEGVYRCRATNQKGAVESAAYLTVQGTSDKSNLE

[6] = target: T2, mouse VEGFR-1/Fc chimeric receptor; assay: competitive binding of cold competitor against 125I-VEGF165 on immobilized mouse VEGFR-1/Fc, one-site competition fit [panel VEGFR-1]
[7] = target: T3, mouse VEGFR-2/Fc chimeric receptor (mouse, UniProt P35918 20-762); assay: competitive binding of cold competitor against 125I-VEGF165 on immobilized mouse VEGFR-2/Fc, one-site competition fit [panel VEGFR-2]
T3 construct: Bought from R&D Systems; also called KDR; KDR receptor
T3 sequence (P35918 20-762, stated change not applied): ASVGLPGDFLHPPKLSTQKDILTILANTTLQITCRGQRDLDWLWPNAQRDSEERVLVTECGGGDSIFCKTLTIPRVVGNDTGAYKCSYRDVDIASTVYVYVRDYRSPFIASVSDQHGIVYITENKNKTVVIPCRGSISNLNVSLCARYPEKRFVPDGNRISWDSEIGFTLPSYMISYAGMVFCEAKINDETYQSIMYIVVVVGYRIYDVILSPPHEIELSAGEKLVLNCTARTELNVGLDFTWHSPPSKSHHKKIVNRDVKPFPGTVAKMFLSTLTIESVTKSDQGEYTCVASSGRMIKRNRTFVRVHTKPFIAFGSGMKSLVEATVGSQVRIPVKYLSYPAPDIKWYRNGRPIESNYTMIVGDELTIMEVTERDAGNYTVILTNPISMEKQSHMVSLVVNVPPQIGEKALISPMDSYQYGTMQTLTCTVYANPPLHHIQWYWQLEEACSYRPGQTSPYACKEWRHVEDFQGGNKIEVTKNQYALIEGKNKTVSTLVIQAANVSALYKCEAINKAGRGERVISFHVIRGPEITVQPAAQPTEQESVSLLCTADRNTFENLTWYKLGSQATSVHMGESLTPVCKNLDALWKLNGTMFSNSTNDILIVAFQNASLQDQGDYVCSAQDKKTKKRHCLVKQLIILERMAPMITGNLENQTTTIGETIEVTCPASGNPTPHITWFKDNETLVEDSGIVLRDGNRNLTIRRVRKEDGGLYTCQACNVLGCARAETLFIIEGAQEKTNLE

[8] = target: T3, mouse VEGFR-2/Fc chimeric receptor; assay: competition plate binding assay: cold competitor against 125I-VEGF165 on immobilized VEGFR-2 (KDR)/Fc, scintillation counting

| Binder | IC50 (read off the curve) [2] | IC50 (read off the curve) [5] | IC50 (read off the curve) [8] | further results |
| --- | --- | --- | --- | --- |
| B1 | – | – | – | IC50 [1]: 28.6 nM |
| B2 | ~5 nM | – | – | – |
| B3 | – | ~0.02 nM | ~0.08 nM | IC50 [3]: 0.128 nM; fold stronger competitive binding than HBD [4]: ~230 fold; IC50 (read off the curve) [6]: ~0.04 nM; IC50 (read off the curve) [7]: ~0.2 nM |
| B4 | ~0.4 nM | – | – | fold reduction of binding affinity compared to VEGF164 [3]: 2.5 fold |
| B5 | – | ~0.09 nM | ~0.08 nM | – |
